Assay [1] addresses Human CD3 on T cells in donor PBMC (human) (UniProt P07766). Description: cell-based or functional assay.
Assay [2] deals with Human CD3εδ heterodimeric Fc fusion (human). Description: ForteBio BLI, Fab KD, monovalent. Background: In BLI a coated tip is dipped into the sample, and binding shifts an interference pattern.
For assay [3], the target named is Cynomolgus CD3εδ heterodimeric Fc fusion (cynomolgus). Description: ForteBio BLI, Fab KD, monovalent.

In general, Kd refers to the free concentration of one partner at which half of the binding sites on the other are occupied at equilibrium, for simple one-to-one binding.

Human CD3 on T cells in donor PBMC (human), sequence (P07766 23-207): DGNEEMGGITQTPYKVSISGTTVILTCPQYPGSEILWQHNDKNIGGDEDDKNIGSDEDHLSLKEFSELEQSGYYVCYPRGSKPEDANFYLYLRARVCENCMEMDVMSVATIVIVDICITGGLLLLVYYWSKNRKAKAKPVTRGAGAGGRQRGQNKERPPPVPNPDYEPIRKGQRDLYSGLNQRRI

B1: ADI-26954 Fab (Fab, from a related filing, V domains shown)
VH: QVQLVQSGAEVKKPGASVKVSCKASGFNIKDYYMHWVRQAPGQRLEWMGWIDLENANTIYDAKFQGRVTITRDTSASTAYMELSSLRSEDTAVYYCARDNYGGYFYDVWGQGTLVTVSS
VL: DIVMTQSPDSLAVSLGERATINCKSSQSLLESRTGKNYLAWYQQKPGQPPKLLIYWASTRESGVPDRFSGSGSGTDFTLTISSLQAEDVAVYYCKQSYSLRTFGGGTKVEIK
In assay [1], B1 displayed a D5801 10 nM Fab IFNg of 0 pg/mL; a Fab IFNg, donor A4560 PBMC, 0.3 nM of 0 pg/mL; a Fab IFNg, donor A4560 PBMC, 10 nM of 0 pg/mL; a Fab IFNg, donor D5801 PBMC, 0.3 nM of 0 pg/mL.

B2: ADI-26928 Fab (Fab, from a related filing, V domains shown)
VH: QVQLVQSGAEVKKPGASVKVSCKASGFNIKDYYMHWVRQAPGQRLEWMGWIDLEEGNTIYDAKFQGRVTITRDTSASTAYMELSSLRSEDTAVYYCGRDAYGLYFYDVWGQGTLVTVSS
VL: DIVMTQSPDSLAVSLGERATINCKSSQSLLNARTGKNYLAWYQQKPGQPPKLLIYWASTRESGVPDRFSGSGSGTDFTLTISSLQAEDVAVYYCKQSYSLRTFGGGTKVEIK
B2 returned a Fab IFNg, donor D5801 PBMC, 10 nM in assay [1] of 0 pg/mL.

B3: ADI-26941 Fab (Fab, from a related filing, V domains shown)
VH: QVQLVQSGAEVKKPGASVKVSCKASGFNIKDYYMHWVRQAPGQRLEWMGWIDLEEGNTIYDAKFQGRVTITRDTSASTAYMELSSLRSEDTAVYYCARDQYGRYFYDVWGQGTLVTVSS
VL: DIVMTQSPDSLAVSLGERATINCKSSQSLLNARTGKNYLAWYQQKPGQPPKLLIYWASTRESGVPDRFSGSGSGTDFTLTISSLQAEDVAVYYCKQSYSIRTFGGGTKVEIK
Take B3: the D5801 10 nM Fab IFNg in assay [1] stood at 0 pg/mL. The Kd in assay [2] stood at 1100 nM; in assay [3], 220 nM.

The values are drawn from patent US20200190189A1.
